From the supplement of paper PMC7877785
± gives the uncertainty stated by the source.

Experiment: self-splicing fitness, log relative to wild type (ln ratio); higher = more splicing; Tetrahymena group I intron in knt gene, E. coli kanamycin selection, DiMSum; sequences stand for … in CUCUCU…GGAGGGAAAAGUUAUCAGGCAUGCACCUGGUAGCUAGUCUUUAAACCAAUAGAUUGCAUCGGUUUAAAAGGCAAGACCGUCAAAUUGCGGGAAAGGGGUCAACAGCCGUUCAGUACCAAGUCUCAGGGGAAACUUUGAGAUGGCCUUGCAAAGGGUAUGGUAAUAAGCUGACGGACAUGGUCCUAACCACGCAGCCAAGUCCUAAGUCAACAGAUCUUCUGUUGAUAUGGAUGCAGUUCACAGACUAAAUGUCGGUCGGGGAAGAUGUAUUCUUCUCAUAAGAUAUAGUCGGACCUCUCCUUAAUGGGAGCUAGCGGAUGAAGUGAUGCAACACUGGAGCCGCUGGGAACUAAUUUGUAUGCGAAAGUAUAUUGAUUAGUUUUGGAGUACUCGUGGUCG
Outline: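 Pooled colonies went to amplicon sequencing on an Illumina HiSeq 2500 after six replicate transformations. The plates were LB agar with 100 μg/mL carbenicillin, 50 μM IPTG and 0.2% rhamnose, with or without 25 μg/mL kanamycin, incubated overnight at 37°C or 30°C. The E. coli BL21(DE3) library had all eight P1ex-region intron nucleotides randomised, the intron placed in the knt kanamycin-resistance gene on pET-22b(+). DiMSum fitness is the error-weighted combination of replicate fold changes, kanamycin against none, normalised to wild type.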

| Sequence | self-splicing fitness (ln) (30 °C) | self-splicing fitness (ln) (37 °C) |
| --- | --- | --- |
| GAUCAGCAAUAUUACGCAGU | -1.74 ± 0.083 | -0.88 ± 0.12 |
| AUUUAGCAAUAUUACGACUC | -0.866 ± 0.14 | 0.207 ± 0.16 |
| UUCGAGCAAUAUUACGGUGU |  | -3.35 ± 0.42 |
| CUUUAGCAAUAUUACGAAAC |  | -1.65 ± 0.32 |
| UUCGAGCAAUAUUACGGGAA | -1.74 ± 0.16 | -0.981 ± 0.15 |
| ACAGAGCAAUAUUACGAUAC | -1.87 ± 0.35 |  |
| GACCAGCAAUAUUACGGUUA | -0.367 ± 0.046 | -0.221 ± 0.056 |
| GCAAAGCAAUAUUACGGAUU | -0.922 ± 0.067 | -0.799 ± 0.1 |
| CACCAGCAAUAUUACGUCCC | -4.07 ± 0.31 | -2.79 ± 0.32 |
| GUCAAGCAAUAUUACGUCUC | -0.66 ± 0.076 | -0.461 ± 0.097 |
| UACGAGCAAUAUUACGUUCA | -1.3 ± 0.11 | -0.719 ± 0.13 |
| GUCCAGCAAUAUUACGUGGC | -3.97 ± 0.24 | -3.46 ± 0.39 |
| AGCGAGCAAUAUUACGAUCC |  | -0.865 ± 0.49 |
| GUGUAGCAAUAUUACGAUCG | -1.94 ± 0.22 | 0.634 ± 0.17 |
| UUGUAGCAAUAUUACGUAGC | -3.44 ± 0.31 | -2.87 ± 0.25 |
| GAAGAGCAAUAUUACGUCGC | -2.58 ± 0.28 | 0.595 ± 0.21 |
| GUACAGCAAUAUUACGGUCG | -1.36 ± 0.058 | -0.547 ± 0.084 |
| CGUAAGCAAUAUUACGCCUA |  | -2.18 ± 0.27 |
| GUCUAGCAAUAUUACGUUUG | -2.11 ± 0.088 | -1.62 ± 0.11 |
| GCGAAGCAAUAUUACGGAGG | -2.1 ± 0.18 | -0.467 ± 0.12 |
| GCCUAGCAAUAUUACGGGGU | -3.83 ± 0.19 | -2.19 ± 0.19 |
| UGACAGCAAUAUUACGUGCC | -1.3 ± 0.12 | -1.58 ± 0.15 |
| AAUCAGCAAUAUUACGCCCU | 0.314 ± 0.099 | 0.0253 ± 0.12 |
| CUUUAGCAAUAUUACGAGUG | -0.24 ± 0.06 | -0.267 ± 0.077 |
| CACUAGCAAUAUUACGUUCG | 0.203 ± 0.084 | 0.725 ± 0.11 |

| Sequence | self-splicing fitness (ln) (30 °C) | self-splicing fitness (ln) (37 °C) |
| --- | --- | --- |
| ACCAAGCAAUAUUACGGAGC | -3.33 ± 0.23 | -3.2 ± 0.33 |
| AGCUAGCAAUAUUACGGGCC | -3.59 ± 0.26 | -2.51 ± 0.24 |
| UAAAAGCAAUAUUACGAAUG | -1.18 ± 0.067 | 0.0515 ± 0.081 |
| AUUGAGCAAUAUUACGAGCU | -3.6 ± 0.37 | -1.63 ± 0.37 |
| CCUGAGCAAUAUUACGAUCU | -4.01 ± 0.39 |  |
| UGAUAGCAAUAUUACGUCGG | -1.4 ± 0.12 | -0.72 ± 0.12 |
| AUUUAGCAAUAUUACGUGAG | -1.6 ± 0.083 | -0.846 ± 0.13 |
| CGCAAGCAAUAUUACGCGUG | -3.08 ± 0.12 | -1.99 ± 0.13 |
| AUCUAGCAAUAUUACGCGUU | -1.76 ± 0.096 | -0.994 ± 0.1 |
| CGCCAGCAAUAUUACGCGAA | -2.14 ± 0.15 | -1.38 ± 0.15 |
| UCGGAGCAAUAUUACGCGUG | 0.284 ± 0.17 | -0.281 ± 0.17 |
| UUUCAGCAAUAUUACGAUGU | -2.13 ± 0.13 | -1.47 ± 0.15 |
| GCUGAGCAAUAUUACGUACU | -1.76 ± 0.23 | -1.07 ± 0.27 |
| AGAAAGCAAUAUUACGUAAC | -3.26 ± 0.22 | -2.47 ± 0.33 |
| CGGGAGCAAUAUUACGACCU | -0.87 ± 0.14 | -0.864 ± 0.18 |
| AACUAGCAAUAUUACGCCGA | -1.74 ± 0.18 | -0.583 ± 0.18 |
| CCAAAGCAAUAUUACGACCA | -3.08 ± 0.34 | -1.78 ± 0.45 |
| GGGUAGCAAUAUUACGAAGA | -1.72 ± 0.21 | -1.62 ± 0.21 |
| UAGAAGCAAUAUUACGUCAA | -2.08 ± 0.16 | -0.86 ± 0.12 |
| GCUCAGCAAUAUUACGUUUU | -1.13 ± 0.056 | 0.00509 ± 0.068 |
| GGGAAGCAAUAUUACGAACU | -2.22 ± 0.26 | 1.13 ± 0.33 |
| CUUAAGCAAUAUUACGUUUG | -3.89 ± 0.2 | -2.73 ± 0.3 |
| GGUCAGCAAUAUUACGGGGC | -4.04 ± 0.33 | -1.11 ± 0.4 |
| CUAGAGCAAUAUUACGGUAC | -3.01 ± 0.33 |  |
| GUAGAGCAAUAUUACGUAGA | -4.79 ± 0.41 | -1.55 ± 0.25 |
